The source of these data is article PMC7532634.

Holding throughout (assay): EMSA
A general note: A gel shift assay detects complexes by their altered migration in electrophoresis.

Data set [1] concerns T1, MsrR:C62S C62S (Corynebacterium glutamicum), ORF:1371e9c5.
T1 sequence: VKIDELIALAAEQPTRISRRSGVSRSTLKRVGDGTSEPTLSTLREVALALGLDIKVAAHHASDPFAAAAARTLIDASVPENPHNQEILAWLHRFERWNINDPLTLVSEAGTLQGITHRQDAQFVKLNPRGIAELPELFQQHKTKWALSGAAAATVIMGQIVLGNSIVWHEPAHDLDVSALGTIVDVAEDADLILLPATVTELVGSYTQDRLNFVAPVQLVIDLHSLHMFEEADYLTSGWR
The note with it: 10 mM Tris-HCl pH 7.4 (Fig 4 legend says pH 8.0 for the H2O2/DTT test), 5 mM MgCl2, 50 mM KCl, 5% glycerol, 0.1% NP40, 1 ug poly(dI:dC), 40 ng DNA in 20 ul ….

Data set [2] has as its system MsrR:C62S (Corynebacterium glutamicum). The following applies: no H2O2; unit inferred, nM from context; apparent KD; 10 mM Tris-HCl pH 7.4 (Fig 4 legend says pH 8.0 for the H2O2/DTT test), 5 mM MgCl2, 50 mM KCl, 5% glycerol, 0.1% NP40, 1 ug poly(dI:dC), 40 ng DNA in 20 ul ….
Data set [3] has as its system MsrR (Corynebacterium glutamicum). The following applies: no oxidant; apparent KD; 10 mM Tris-HCl pH 7.4 (Fig 4 legend says pH 8.0 for the H2O2/DTT test), 5 mM MgCl2, 50 mM KCl, 5% glycerol, 0.1% NP40, 1 ug poly(dI:dC), 40 ng DNA in 20 ul ….

As to “GTGGACACGGGGTGTCTCCTAAAGATGGGGAGCAAAAACCCTCAAACTGCTGCTAAAAATACAGGATTGGCGCCCGTGACGCTACTGAAAAGGTGGAGGGGCGCGTCGAAAAGCGTTGGCCGGTGCCTGAGCGAAAAACCGTGATGATTAGCATGGTTTGTT (double strand) [PmsrR]”, in data set [1], the Kd amounted to 23.1 nM and the binding result is listed as “binds”.
As to PmsrR, the Kd in data set [2] was 23.1 nM; in data set [3], 17 nM.
